# Experimental data: paper PMC4850634, “Characterization of an A-kinase anchoring protein-like suggests an alternative way of PKA anchoring in Plasmodium falciparum” (Malaria Journal, 2016)
# Target: the molecule itself
# Test: SEC; Superdex S200 10/300 Increase, 20 mM Tris-HCl pH 8, 300 mM NaCl; affinity-purified (His)6 protein; peak fractions checked by 12.5 % SDS-PAGE
protein,measurement,value
"(His)6-Pf14-3-3I (natural protein, Plasmodium falciparum, UniProt C0H4V6 1-262, looked up, 14-3-3I protein, Plasmodium falciparum, PlasmoDB MAL8P1.69/PF3D7_0818200; amplified from a P. falciparum cDNA library with primers from the start to the stop codon, cloned into pRSFDuet; recombinant protein 30 kDa; source: E. coli BL21 Codon Plus, purified (Ni-NTA-agarose)) MATSEELKQLRCDCTYRSKLAEQAERYDEMADAMRTLVEQCVNNDKDELTVEERNLLSVAYKNAVGARRASWRIISSVEQKEMSKANVHNKNVAATYRKKVEEELNNICQDILNLLTKKLIPNTSESESKVFYYKMKGDYYRYISEFSCDEGKKEASNCAQEAYQKATDIAENELPSTHPIRLGLALNYSVFFYEILNQPHQACEMAKRAFDDAITEFDNVSEDSYKDSTLIMQLLRDNLTLWTSDLQGDQTEEKSKDEGLE",stoichiometry N,2
